# Tests used:
# Details in all cases: EMSA: 0.2 uM 5'-labelled RNA (90 C 2 min, slow cool to 37 C), yeast tRNA 0.1 ug/reaction, Hfq hexamer 0-500 nM, structure buffer (Ambion), 10 min at 37 C, then …
# Hfq (Escherichia coli) [1] = assay: EMSA
# Hfq (Escherichia coli) [2] = biological target: Hfq (Escherichia coli) (UniProt P0A6X3); assay: EMSA
# Hfq (Escherichia coli) [3] = biological target: Hfq (Escherichia coli) (UniProt P0A6X3); assay: footprinting (lead acetate)
# Sequence of Hfq (Escherichia coli) (UniProt P0A6X3) (P0A6X3 whole entry): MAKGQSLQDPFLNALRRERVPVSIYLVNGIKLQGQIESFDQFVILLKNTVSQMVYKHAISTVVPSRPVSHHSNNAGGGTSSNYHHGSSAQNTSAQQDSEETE
Substance,Kd (Hfq (Escherichia coli) [1]) [nM],Kd (Hfq (Escherichia coli) [2]) [nM],binding (Hfq (Escherichia coli) [3])
sodB130,156,–,–
GGAUACGCACAAUAAGGCUAUUGUACGUAUGCAAAUUAAUAAUAAAGGAGAGUAGCAAUGUCAUUCGAAUUACCUGCACUACCAUAUGCUAAAGAUGCUCUGGCACCGCACAUUUCUGCGGAAACCAUCGAGGAUCCCUAGC [sodB130],–,156,binds
GGAUACGCACAAUAAGGCUAUUGUACGUAUGCAGGCCGGCAAUAAAGGAGAGUAGCAAUGUCAUUCGAAUUACCUGCACUACCAUAUGCUAAAGAUGCUCUGGCACCGCACAUUUCUGCGGAAACCAUCGAGGAUCCCUAGC [sodB130MH],–,314,–
